Data: paper PMC8927147 (2022)
Ends that are not written are not given here. * marks the point of attachment. Bz = O=C(c1ccccc1)*

T1: Taf14_(YEATS) (S. cerevisiae, UniProt P35189 2-137)
T1 chain: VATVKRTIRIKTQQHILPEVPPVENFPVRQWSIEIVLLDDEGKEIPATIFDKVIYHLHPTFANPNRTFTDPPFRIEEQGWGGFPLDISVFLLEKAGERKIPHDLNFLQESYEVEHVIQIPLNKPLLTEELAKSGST

T2: Sas5_(YEATS) (S. cerevisiae, UniProt Q99314 2-139)
T2 chain: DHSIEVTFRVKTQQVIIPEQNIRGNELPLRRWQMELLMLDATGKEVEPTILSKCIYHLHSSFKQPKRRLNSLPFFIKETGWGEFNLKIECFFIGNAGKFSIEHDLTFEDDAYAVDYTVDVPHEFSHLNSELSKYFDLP


How the values were obtained:
Assay in all cases: ITC
Taf14_(YEATS) = target: T1, Taf14_(YEATS)
Sas5_(YEATS) = target: T2, Sas5_(YEATS)
Hst2 = Hst2 (S. cerevisiae, UniProt P53686 1-357)
Hst2, sequence (P53686 whole entry): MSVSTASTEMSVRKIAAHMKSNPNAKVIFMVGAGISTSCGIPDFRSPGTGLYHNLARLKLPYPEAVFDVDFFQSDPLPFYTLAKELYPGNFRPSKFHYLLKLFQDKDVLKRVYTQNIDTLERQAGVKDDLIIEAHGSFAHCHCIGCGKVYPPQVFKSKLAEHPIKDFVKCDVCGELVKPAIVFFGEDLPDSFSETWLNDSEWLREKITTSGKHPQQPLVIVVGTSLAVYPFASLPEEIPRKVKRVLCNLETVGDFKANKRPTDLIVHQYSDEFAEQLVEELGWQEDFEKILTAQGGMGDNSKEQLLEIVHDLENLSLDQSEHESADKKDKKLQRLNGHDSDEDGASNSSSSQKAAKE

| Binder | Kd (Taf14_(YEATS)) | Kd (Sas5_(YEATS)) | Kd (Hst2) |
| --- | --- | --- | --- |
| TARKSTGGK(Bz)APRKQLASY [H3K14bz peptide] | 385 µM | 100 µM | 13.2 µM |
| APRKQLASK(Bz)AARKSAPSTY [H3K23bz peptide] | 467 µM | 279 µM | 14.8 µM |
| ARTKQTARKSTGGKAPRKQY (benzoyl-lysine (Kbz) at K9) [H3K9bz peptide] | – | 178 µM | – |
| KQLASKAARK(Bz)SAPSTGGVKY [H3K27bz peptide] | 136 µM | 92.6 µM | 6.13 µM |
| STGGKAPRKQLASKAARY (benzoyl-lysine (Kbz) at K18) [H3K18bz peptide] | 85.5 µM | 245 µM | 1.74 µM |
